The source of these data is publication doi:10.1101/797449.

The target of the assay is dsRBD1 of human TAR RNA Binding Protein (TRBP2) (human). In words: SEC-MALS. (In gel filtration, larger molecules generally elute earlier.)

The term stoichiometry N denotes a count of units in the complex or per binding partner. As to “dsRBD1 of human TAR RNA Binding Protein (TRBP2) (domain or fragment)”, the population of tetramer relative to monomer came to 0.25 and the stoichiometry N was 4.
